B1: M-phase phosphoprotein 8 (Homo sapiens), Q99549 (parent)
chain: MEQVAEGARVTAVPVSAADSTEELAEVEEGVGVVGEDNDAAARGAEAFGDSEEDGEDVFEVEKILDMKTEGGKVLYKVRWKGYTSDDDTWEPEIHLEDCKEVLLEFRKKIAENKAKAVRKDIQRLSLNNDIFEANSDSDQQSETKEDTSPKKKKKKLRQREEKSPDDLKKKKAKAGKLKDKSKPDLESSLESLVFDLRTKKRISEAKEELKESKKPKKDEVKETKELKKVKKGEIRDLKTKTREDPKENRKTKKEKFVESQVESESSVLNDSPFPEDDSEGLHSDSREEKQNTKSARERAGQDMGLEHGFEKPLDSAMSAEEDTDVRGRRKKKTPRKAEDTRENRKLENKNAFLEKKTVPKKQRNQDRSKSAAELEKLMPVSAQTPKGRRLSGEERGLWSTDSAEEDKETKRNESKEKYQKRHDSDKEEKGRKEPKGLKTLKEIRNAFDLFKLTPEEKNDVSENNRKREEIPLDFKTIDDHKTKENKQSLKERRNTRDETDTWAYIAAEGDQEVLDSVCQADENSDGRQQILSLGMDLQLEWMKLEDFQKHLDGKDENFAATDAIPSNVLRDAVKNGDYITVKVALNSNEEYNLDQEDSSGMTLVMLAAAGGQDDLLRLLITKGAKVNGRQKNGTTALIHAAEKNFLTTVAILLEAGAFVNVQQSNGETALMKACKRGNSDIVRLVIECGADCNILSKHQNSALHFAKQSNNVLVYDLLKNHLETLSRVAEETIKDYFEARLALLEPVFPIACHRLCEGPDFSTDFNYKPPQNIPEGSGILLFIFHANFLGKEVIARLCGPCSVQAVVLNDKFQLPVFLDSHFVYSFSPVAGPNKLFIRLTEAPSAKVKLLIGAYRVQLQ

We go through 1 variant from IntAct's records for PubMed 20871592.

In the assay the parent is B1. The note with it: with h31_human H3C1, P68431.
W80A: the “effect of a mutation on the interaction” value is recorded as “disrupting interaction”.
